Measurements taken from patent US6689362B1, “Method for treating T-lineage leukemias and lymphomas using a CD7-specific monoclonal antibody (TXU-7) linked to the pokeweed antiviral protein (PAP)” (priority 1997, dated 2004).
Several values for one entry are separate records, joined by “and”; a condition that tells them apart may be missing. Equal values may be shown once. Read-outs that look alike come from different tables or passages of the source.

How the values were obtained:
BALB/c mice = experiment: Acute toxicity of PAP, single i.v. injection; type: in vivo
Experimental: Female BALB/c mice weighing approximately 20 grams were given a single intravenous injection of purified PAP (Lot #P-1993) via the tail vein. Eight different doses were used ranging from 10 μg to 175 μg and each dose was tested in 5 mice. Mice were monitored for 30 days for morbidity and mortality. […] This non-toxic dose is >90-fold higher than the highest PAP dose that will be given to patients as a TXU-7 antibody conjugate. Deaths were observed only in the groups receiving 150 μg/20 g mouse (=7.5 mg/kg) or higher doses.

[1] = test system: ribosomes (nuclease-treated rabbit reticulocyte lysate); experiment: Cell-free protein synthesis inhibition assay (rabbit reticulocyte cell-free translation); type: biochemical
Experimental: The ribosome-inhibiting activity of PAP was analyzed in a cell-free translation system obtained in kit form from Promega Biotec, Inc. (Madison, Wis.) and based on a method developed by Pelham and Jackson. Pelham et al., Eur. J. Biochem., 67, 247 (1976). This system consists of the following: nuclease-treated rabbit reticulocyte lysate (35 μL), 1 mM animo acid mixture minus leucine (1 μl), [^3H] leucine (183 Ci/mmol, 1 mCi/mL, Amersham Corp., Arlington Hts, Ill.), 5 μl of brome mosaic virus RNA (2 μL of 0.5 μg/μL stock), and water or buffer to bring the final volume to 50 μL per assay tube. Samples are diluted in PBS and 2.5-5 μL amounts were added to the lysate. Control samples minus toxin were set up in triplicate. At 0 hr (immediately after adding [^3H]-leucine and RNA and mixing gently to start the reaction), 10 μL aliquots were removed from the control and mixed with 1 mL 1 N NaOH to stop the reaction. The control toxin-treated samples were incubated an additional 60 minutes at 37° C., at which time 10 μL samples were again removed to NaOH, mixed, and 50 μL of 30% H2O2 added to decolorize the samples.
Following 10 minutes incubation at 37° C., the tubes were transferred to an ice bath and 2 mL of cold 4% casamino acids followed by 2 mL of cold 50% trichioroacetic acid (TCA) were added to precipitate the synthesized protein. After 30 minutes on ice, the samples were filtered through GF/F glass microfiber filters (Whatman, Hillsboro, Oreg.). The extent of protein synthesis inactivation is determined as percent control response=100 ×([^3H]-leucine incorporation [mean cpm at t60′−mean cpm at t0] for the toxin-treated samples)/([^3H]-leucine incorporation [mean cpm at t60′−mean cpm at t0] for the untreated control).

B1: PAP: 29 kDa ribosome-inactivating protein from spring leaves of pokeweed (Phytolacca americana) (protein)
chain: VNTIIYNVGSTTISKYATFLNDLRNEAKDPSLKCYGIPMLPNTNTNPKYVLVELQGSNKKTITLMLRRNNLYVMGYSDPFETNKCRYHIFNDISGTERQDVETTLCPNANSRVSKNINFDSRYPTLESKAGVKSRSQVQLGIQILDSNIGKISGVMSFTEKTEAEFLLVAIQMVSEAARFKYIENQVKTNFNRAFNPNPKVLNLQETWGKISTAIHDAKNGVLPKPLELVDASGAKWIVLRVDEIKPDVALLNYVGGSCQTTY
**Q.** B1 was tested. Which “non-toxic dose relative to highest PAP dose to be given to patients as conjugate” value (BALB/c mice; 100 μg/20 g mouse dose) did it give?
**A.** The value was > 90 fold.

**Q.** What about the “lethal dose relative to highest PAP dose to be given to patients as TXU-7-PAP” value (BALB/c mice; 150 μg/20 g mouse dose) of the same molecule?
**A.** The value was > 60 fold.

**Q.** What about the “Acute Toxicity in Mice LD50 (i.v.)” value (BALB/c mice; i.v.) of the same molecule?
**A.** The value was “LD50 (i.v.) 150 mg/mouse”.

**Q.** What about the “IC (mean SE) value, ribosome inhibitory activity (first IC value)” value ([1]; purified PAP batches (n=6)) of the same molecule?
**A.** The value was 0.34 ± 0.06 ng/mL.

**Q.** What about the “IC value, ribosome inhibitory activity (second IC value)” value ([1]; purified PAP batches (n=6)) of the same molecule?
**A.** Its value is 3.7±1.1 ng/mL and 130.37 pM.

**Q.** And the IC50 ([1]; purified PAP batches (n=6), read-out: IC value, ribosome inhibitory activity (first IC value))?
**A.** The IC50 was 12.2 pM.

**Q.** What about the “range of first IC value” ([1]; range over PAP batches (n=6)) of the same molecule?
**A.** The value was 0.17 to 0.58 ng/mL.

**Q.** What about the “range of second IC value” ([1]; range over PAP batches (n=6)) of the same molecule?
**A.** The value was 0.63-7.5 ng/mL and 22-263 pM.

**Q.** And the IC50 ([1]; range over PAP batches (n=6), read-out: range of first IC value)?
**A.** The IC50 was 6 to 20 pM.
